Data on two molecules can be found in patent US20200231673A1 (Hoffmann-La Roche, published 2020).

Assay [1] has as its target human CD3 (particularly the epsilon subunit of CD3) (human, UniProt P07766 23-207). The assay can be described thus: cell-based or functional assay.
The next assay addresses human Her3 (human, UniProt P21860 20-1342). The assay can be described thus: cell-based or functional assay.

B1: Her2 TCB: anti-Her2/anti-CD3 '2+1 IgG CrossFab, inverted' molecule with charge modifications (bispecific antibody)
light: EVQLLESGGGLVQPGGSLRLSCAASGFTFSTYAMNWVRQAPGKGLEWVSRIRSKYNNYATYYADSVKGRFTISRDDSKNTLYLQMNSLRAEDTAVYYCVRHGNFGNSYVSWFAYWGQGTLVTVSSASVAAPSVFIFPPSDEQLKSGTASVVCLLNNFYPREAKVQWKVDNALQSGNSQESVTEQDSKDSTYSLSSTLTLSKADYEKHKVYACEVTHQGLSSPVTKSFNRGEC
chain 1: not shown
chain 2: not shown
chain 3: not shown
Consider B1, for which, in assay [1], the “EC50 of activation of Jurkat-NFAT reporter cells via CD3 after 5 h (luminescence, KPL4 tumor cells)” value stood at 34.4 pM.

B2: Her3 TCB: anti-Her3/anti-CD3 '2+1 IgG CrossFab' molecule with charge modifications (bispecific antibody)
light: EVQLLESGGGLVQPGGSLRLSCAASGFTFSTYAMNWVRQAPGKGLEWVSRIRSKYNNYATYYADSVKGRFTISRDDSKNTLYLQMNSLRAEDTAVYYCVRHGNFGNSYVSWFAYWGQGTLVTVSSASVAAPSVFIFPPSDEQLKSGTASVVCLLNNFYPREAKVQWKVDNALQSGNSQESVTEQDSKDSTYSLSSTLTLSKADYEKHKVYACEVTHQGLSSPVTKSFNRGEC
chain 1: not shown
chain 2: QVQLVQSGAEVKKPGASVKVSCKASGYTFRSSYISWVRQAPGQGLEWMGWIYAGTGSPSYNQKLQGRVTMTTDTSTSTAYMELRSLRSDDTAVYYCARHRDYYSNSLTYWGQGTLVTVSSASTKGPSVFPLAPSSKSTSGGTAALGCLVEDYFPEPVTVSWNSGALTSGVHTFPAVLQSSGLYSLSSVVTVPSSSLGTQTYICNVNHKPSNTKVDEKVEPKSCDKTHTCPPCPAPEAAGGPSVFLFPPKPKDTLMISRTPEVTCVVVDVSHEDPEVKFNWYVDGVEVHNAKTKPREEQYNSTYRVVSVLTVLHQDWLNGKEYKCKVSNKALGAPIEKTISKAKGQPREPQVCTLPPSRDELTKNQVSLSCAVKGFYPSDIAVEWESNGQPENNYKTTPPVLDSDGSFFLVSKLTVDKSRWQQGNVFSCSVMHEALHNHYTQKSLSLSP
chain 3: not shown
B2: the “EC50 of activation of Jurkat-NFAT reporter cells via CD3 after 5 h (luminescence, KPL4 tumor cells)” value in assay [1] is 22 pM. Further, in the assay with human Her3, the “EC50 of tumor cell lysis (LDH release), KPL4 cells, 24 h” value came to 2.54 pM; the “EC50 of tumor cell lysis (LDH release), KPL4 cells, 48 h” value was determined as 0.53 pM; the “EC50 of tumor cell lysis determined by Caspase 3/7 activity (luminescence), KPL-4-Caspase-3/7 GloSensor cells, 6.5 h” value was found to be 0.7 pM.
